Experimental data published in patent US20260035484A1 (LONGBIO PHARMA SUZHOU, published 2026).

What was measured:
[1] = target: T1, human IgE (abcam, Product code ab65866) (human, UniProt P01854-1 1-428); experiment: MSD-SET, solution equilibrium titration
T1 construct: also called antigen human IgE
Protocol: The solution equilibrium titration (SET) was performed in PBS+0.1% of IgG-free BSAbuffer (PBSF), where the antigen human IgE (purchased from: abcam, Product code: ab65866) was kept constant at 10-100 pM and incubated with 3-fold serial dilutions of humanized antibodies starting from 0.1-100 nM. […] 20 nM of antibodies diluted in PBS were coated onto standard binding MSD-ECL plates (purchased from MSD, Product code: L15XA-3) at 4° C. overnight. The MSD-ECL plates were blocked with 1% of Casein for 30 min while shaking at 700 rpm, and then washed with washing buffer (PBS+0.05% Tween 20) three times. The samples incubated with 2-fold serial dilutions of antigen human IgE and humanized antibodies were added into the MSD-ECL plates, incubated for 150 s while shaking at 700 rpm, and then washed once. […] 1× reading buffer T (purchased from MSD, Product code: R92TC-1) was added to read on an MSD Sector Imager instrument (Model: MESO QuickPlex SQ 120). In a Prism-GraphPad6 software, the percentage of free antigens was plotted as a function of titrated antibodies and fitted into a quadratic equation to extract the KD values.

[2] = target: T2, biotin-labelled human IgE-Fc (human, UniProt P01854 104-427, biotin-labelled); experiment: blocking ELISA: inhibition of biotin-labelled human IgE-Fc binding to coated FcεRIα-Fc
T2 construct: also called recombinant human IgE-Fc protein; Fc region (CH2-4) protein of human IgE
Protocol: (§1) The method specifically included diluting the recombinantly expressed human FcεRIα-Fc protein (with its amino acid sequence as set forth in SEQ ID NO: 51) with PBS to a final concentration of 1 μg/mL, coating the ELISA plates (purchased from Corning, Product code: 42592) at 100 μL per well, and keeping at 4° C. overnight. The next day, the coating solution was discarded. The wells were blocked with 2.5% skimmed milk dissolved in PBS for 1 hour and washed with PBS containing 0.05% Tween-20. […] After discarding the supernatant, the wells were washed with PBS containing 0.05% Tween-20 and detected by using HRP-labelled streptavidin (purchased from Sangon Biotech, Product code: D111054-0001).

[3] = target: T2, biotin-labelled human IgE-Fc; experiment: blocking ELISA: FcεRIα-Fc coated, biotin-labelled human IgE-Fc (100 ng/mL) premixed with the antibody, streptavidin-HRP; blocked ligand FcεRIα-Fc
Protocol: as §1

[4] = target: T2, biotin-labelled human IgE-Fc; experiment: blocking ELISA, inhibition ratio: FcεRIα-Fc coated, biotin-labelled human IgE-Fc (100 ng/mL) premixed with the antibody, streptavidin-HRP; blocked ligand FcεRIα-Fc
Protocol: as §1, with “[…],” for “μg/mL,”, “diluted with” for “detected by using”, “D111054-0001) at 1:1000 for detection. The inhibition ratio of different antibodies at different concentrations was calculated following the formula below: Inhibition ratio at antibody concentration of X (%)=(OD₄₅₀ readout at antibody concentration of 0-OD₄₅₀ readout at antibody concentration of X)/OD₄₅₀ readout at antibody concentration of 0×100.” for “D111054-0001).”

[5] = target: T2, biotin-labelled human IgE-Fc; experiment: blocking ELISA: FcεRIα-Fc coated, biotin-labelled human IgE-Fc (1 µg/mL) premixed with the antibody, streptavidin-HRP; blocked ligand FcεRIα-Fc
Protocol: The next day, the coating solution was discarded. The wells were blocked with 2.5% skimmed milk dissolved in PBS for 1 hour and washed with PBS containing 0.05% Tween-20. […] After discarding the supernatant, the wells were washed with PBS containing 0.05% Tween-20 and diluted with HRP-labelled streptavidin (purchased from Sangon Biotech, Product code: D111054-0001) at 1:1000 for detection.

T2 sequence (P01854 other isoform, or with tags, fused parts or gaps limits assumed): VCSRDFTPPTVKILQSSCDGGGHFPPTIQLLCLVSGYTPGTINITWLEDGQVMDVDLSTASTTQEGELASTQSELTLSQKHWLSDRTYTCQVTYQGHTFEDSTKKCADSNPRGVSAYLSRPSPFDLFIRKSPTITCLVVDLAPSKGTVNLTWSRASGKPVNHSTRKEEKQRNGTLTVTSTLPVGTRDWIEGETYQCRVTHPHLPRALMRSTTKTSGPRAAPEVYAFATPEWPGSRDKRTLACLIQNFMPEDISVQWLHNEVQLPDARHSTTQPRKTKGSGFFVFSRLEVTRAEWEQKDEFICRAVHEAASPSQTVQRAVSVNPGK
T1 sequence (P01854 other isoform, or with tags, fused parts or gaps): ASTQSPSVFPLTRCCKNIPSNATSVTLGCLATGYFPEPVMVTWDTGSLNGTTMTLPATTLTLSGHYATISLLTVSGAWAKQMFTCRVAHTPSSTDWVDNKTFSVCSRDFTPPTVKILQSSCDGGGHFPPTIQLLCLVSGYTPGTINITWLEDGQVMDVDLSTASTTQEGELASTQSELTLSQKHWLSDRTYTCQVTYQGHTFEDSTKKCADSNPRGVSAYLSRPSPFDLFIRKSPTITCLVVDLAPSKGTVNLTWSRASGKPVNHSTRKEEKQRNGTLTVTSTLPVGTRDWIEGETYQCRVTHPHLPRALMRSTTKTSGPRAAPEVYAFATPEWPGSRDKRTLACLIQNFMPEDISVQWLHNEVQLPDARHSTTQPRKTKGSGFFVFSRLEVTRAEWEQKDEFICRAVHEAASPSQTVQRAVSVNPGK

Kd [1] | IC50 [2] | IC50 (read off the curve) [3] | IC50 (read off the curve) [4] | IC50 (read off the curve) [5] | Binder
0.01 nM | ~0.266 nM | ~0.06 µg/mL |  |  | Humanized antibody SE5 (antibody, human IgG1, kappa, V domains shown, also called SE5 humanized antibody; humanized SE5) VH: QVQLQESGPGLVKPSQTLSLTCTVSGYSITSDYAWNWIRQPPGNGLEWLGYINYSGTTRYNPSLKSRITISRDTSKNQFSLKLSSVTAADTAVYFCVYGSSQRFFDYWGQGTLVTVSS VL: DIVMTQSPDSLAVSLGERATINCKASQDVSIDVAWYQQKPGQPPKLLIYSASWRYAGVPDRFSGSRSGTDYTLTISSLQAEDVAVYYCQQHYNLFTFGSGTKLEIKR
 |  | ~0.07 µg/mL | ~0.08 µg/mL | ~0.2 µg/mL | mouse-derived monoclonal antibody SE5 (antibody, V domains shown, the cloning primer was homologous to the mouse IgG1 heavy chain constant region; also called SE5 mouse hybridoma antibody; mouse-derived parent antibody of SE5) VH: DVQLLESGPGLVKPSQSLSLTCTVTGYSITSDYAWNWIRQFPGNKLEWLGYINYSGTTRYNPSLKSRISISRDTSKNQFFLQLNSVTSEDTATYFCVYGSSQRFFDYWGQGTTLTVSS VL: DIVMTQSHKFMSTSVGDRVSITCKASQDVSIDVAWYQQKPGQSPKLLIYSASWRYAGVPDRFTGSRSGTDYTLTISSVQAEDLAVYYCQQHYNLFTFGSGTKLEIQ
 |  |  | ~0.08 µg/mL |  | chimeric antibody SE5 (mouse SE5 variable regions, human IgG1/kappa constant regions) (antibody, V domains shown, also called chimeric recombinant monoclonal antibody) VH: DVQLLESGPGLVKPSQSLSLTCTVTGYSITSDYAWNWIRQFPGNKLEWLGYINYSGTTRYNPSLKSRISISRDTSKNQFFLQLNSVTSEDTATYFCVYGSSQRFFDYWGQGTTLTVSS VL: DIVMTQSHKFMSTSVGDRVSITCKASQDVSIDVAWYQQKPGQSPKLLIYSASWRYAGVPDRFTGSRSGTDYTLTISSVQAEDLAVYYCQQHYNLFTFGSGTKLEIQR

The remaining lines, values behind:

Binder | Kd [1] | IC50 [2] | IC50 (read off the curve) [3] | IC50 (read off the curve) [4] | IC50 (read off the curve) [5]
Humanized antibody SE2 (antibody, human IgG1, kappa, V domains shown, also called SE2 humanized antibody; humanized SE2) VH: QVQLQESGPGLVKPSQTLSLTCTVSGYSITSDYAWNWIRQPPGNGLEWMGYISYSGSTRYNPSLKSRITISRDTSKNQFSLKLSSVTAADTAVYFCVYGSSQRFFDYWGQGTLVTVSS VL: DILMTQSPDSLAVSLGERATINCKASQDVSIDVAWYQQKPGQPPKLLIYSASFRYAGVPDRFSGSGSGTDFTLTISSLQAEDVAVYYCQQHYSLFTFGSGTKLEIKR | 0.0109 nM | ~0.417 µg/mL |  |  | 
chimeric antibody SE2 (mouse SE2 variable regions, human IgG1/kappa constant regions) (antibody, V domains shown, also called chimeric recombinant monoclonal antibody) VH: DVQLLESGPGLVKPSQSLSLTCTVTGYSITSDYAWNWIRQFPGNKLEWMGYISYSGSTRYNPSLKSRISISRDTSKNQFFLQLNSVTSEDTATYFCVYGSSQRFFDYWGQGTTLTVSS VL: DILMTQSHKFMSTSIGDRVSITCKASQDVSIDVAWYHQKPGQSPKLLIYSASFRYAGVPDRFTGSGSGTDFTLTISSVQAEDLAVYYCQQHYSLFTFGSGTKLEIKR |  |  |  | ~0.2 µg/mL | 
mouse-derived monoclonal antibody SE2 (antibody, V domains shown, the cloning primer was homologous to the mouse IgG1 heavy chain constant region; also called SE2 mouse hybridoma antibody; mouse-derived parent antibody of SE2) VH: DVQLLESGPGLVKPSQSLSLTCTVTGYSITSDYAWNWIRQFPGNKLEWMGYISYSGSTRYNPSLKSRISISRDTSKNQFFLQLNSVTSEDTATYFCVYGSSQRFFDYWGQGTTLTVSS VL: DILMTQSHKFMSTSIGDRVSITCKASQDVSIDVAWYHQKPGQSPKLLIYSASFRYAGVPDRFTGSGSGTDFTLTISSVQAEDLAVYYCQQHYSLFTFGSGTKLEIK |  |  |  | ~0.2 µg/mL | ~0.3 µg/mL
